# Experimental data reported in US20230279079A1 (CHANG GUNG MEMORIAL HOSPITAL LINKOU, published 2023).
# Residue numbers refer to the chain shown, from its start.
# B1: EW 9C (antibody, V domains shown)
# VH: EVQLVESGGGVVQPGASLRLSCVASGFTFNNFGFHWVRQAPGKGLEWLAVISYEGSKTYYAESLKGRFTISRDTSKNTVYLQMNSLRAEDTAVYYCARATSIFWFGEGRNWFDPWGQGTMVTVSS
# VL: EIVLTQSPGTVSLSAGERATLSCRASQNVGTDLAWYVQRPGQAPRLLIYDTSNKATGIPARFSGRGSGTDFTLTIDSLEPEDFAVYYCQQRSNWPLTFGGGTKVEIR
# B2: EW 9C-1 (antibody, V domains shown)
# VH: B1 VH with T119A, M120L
# VL: B1 VL with L4M, K54R, R107K
# B3: FI 3A (antibody, V domains shown)
# VH: EVQLLESGGGLIQPGGSLRLSCAASGFTVSSNYMSWVRQAPGKGLEWVSVIYSGGSTYYADSVKGRFTISRDNSKNTLYLQMNSLRAEDTAVYYCARDHVRPGMNIWGQGTMVTVSS
# VL: not shown
# notes: also called FI 03A
# B4: FD 11A (antibody, V domains shown)
# VH: EVQLVESGGGVVQPGRSLRLSCAASGFTFSSYGMHWVRQAPGKGLEWVAVIWYDGSNKYYADSVKGRFTISRDNSKNTLYLQMNSLRAEDTAVYYCAKGPDILTGYYNYYYYGMDVWGQGTMVTVSS
# VL: QSVLTQPPSVSGAPGQRVTISCTGSSSNIGAGYDVHWYQQLPGTAPKLLIYGNSNRPSGVPDRFSGSKSGTSASLAITGLQAEDEADYYCQSYDSSLSGFYVVFGGGTKLTVL
# B5: FD 5D (antibody, V domains shown)
# VH: EVQLVESGGGLVQPGGSLRLSCAASGFTFSSYSMNWVRQAPGKGLEWVSYISSSSSTIYYADPVKGRFTISRDNAKNSLYLQMNSLRAEDTAVYYCASPGGITAAGTSVLFGYYGMDVWGQGTMVTVSS
# VL: not shown
# B6: EY 6A (antibody, V domains shown)
# VH: EVQLVESGGGVVQPGRSLRLSCAASAFTFSSYDMHWVRQAPGKGLEWVAVISYDGSNKYYADSVKGRFTISRDNSKNTLYLQMNSLRAEDTAVYYCAKDGGKLWVYYFDYWGQGTTVTVSS
# VL: not shown
# B7: FD 10A (antibody, V domains shown)
# VH: EVQLVESGGGLVQPGGSLRLSCAASGFTFSSYWMHWVRQAPGKGLVWVSRINSDGSSTSYADSVKGRFTISRDNAKNTLYLQMNSLRAEDTAVYYCANMAFDIWGQGTMVTVSS
# VL: not shown
# B8: FB 1E (antibody, V domains shown)
# VH: EVQLVESGAEVKKPGESLKISCQGSGYRFNSYWIAWVRQMPGKGLEWMGSIFPTDSDIRYNPSFQGQVTISADKSISIAYLQWSSLKASDTAIYYCARHWASMVRGVIRASHYYGMDVWGQGTTVTVSS
# VL: QSVLTQPPSASGSPGQSVTISCSGASSDIGDYNYVSWYQQLPGKAPKLLIYEVTKRPSGVPDRFSGSKSGNTASLTVSGLQADDEADYYCSSYAFGGSDIRVFGGGTKLAVL
# B9: FJ 4E (antibody, V domains shown)
# VH: QVQLVESGPGLVKPSETLSLTCSVSGGSISSGTYYWSWIRQQPGKGLEWIGYIYNTGRPYYNPFLKSRITISVDSSKNQFSLKLTSVTAADTAVYYCARDEYDSSDSGIQGHWFDPWGQGTLVTVSS
# VL: AIRMTQSPSSLSASVGDRVTITCRTSQNINSFLNWYQQKPGKGPNLLIYGAFTLQSGVPSRFSGSGSGTDFTLTISSLQPEDFATYFCQQSYSTPWTFGQGTKVEIK
# B10: FG 7A (antibody, V domains shown)
# VH: EVQLVESGGGVVQPGRSLRLSCAASGFTFSSYAMHWVRQAPGKGLEWVAVISYDGSNKYYADSVKGRFTISRDNSKNTLYLQMNSLRAEDTAVYYCARSHSGSYRASLDYWGQGTTVTVSS
# VL: not shown
# B11: FM 1A (antibody, V domains shown)
# VH: EVQLLESGGGVVQPGRSLRLSCAASGFTFSSYGMHWVRQAPGKGLEWVAVIWYDGSNKYYADSVKGRFTISRDNSKNTLYLQMNSLRAEDTAVYYCAREGAVGATRGFDYWGQGTLVTVSS
# VL: SYELTQPPSVSVAPGQTARITCGGNNIGSKSVHWYQQKPGQAPVLVVYDDSDRPSGIPERFSGSNSGNTATLTISRVEAGDEADYYCQVWDSSSDQGVFGGGTKLTVL
# B12: EW 4C (antibody, V domains shown)
# VH: EVQLVESGPGLVKPSETLSLTCSVSADSFKKGYYWGWIRQPPGKGLESIVNSFDSGTTRYNPSLWGRATVSDMSKWHFSLKLTSVTAADTAVYYCVRGTYGSGLHWGQGILVTVSS
# VL: QTVVTQEPSLTVSPGGTVTLTCGSSVGTVASGHYPYWVQQKPGQAPRTLIYDTDNKQSWTPARFSGSLLGGKAALTLSGAQPEDEADYYCFLSHNDAWVFGGGTKLTVL
# B13: EY 2A (antibody, V domains shown)
# VH: QVQLVESGAEVTKPGDSLIISCKGSGYAFTQYWIGWVRQKPGKGLEWMAMVYPDSSAVFAGGASGVRYRPPFQGQVTISADTSVNTAYLQWDSLKASDTAMYYCVRQERGSNTWYAGNSWGQGTLVTVSS
# VL: DIVMTQSPLSLPVSPGEPASISCRSSQSLLHTDAYNYLDWYLQKPGQSPQLLIYLGSTRASGVPDRFSGSGSGTDFTLKISSVKAEDVGVYYCMQALQTPGTFGQGTKLEIK
# B14: EY 3B (antibody, V domains shown)
# VH: B13 VH with Q1E, D16E, S129F
# VL: B13 VL with D1E, M4L, L109V, K112R
# B15: FD 5E (antibody, V domains shown)
# VH: EVQLVESGGVVVQPGGSLRLSCAASGFTFDDYAMHWVRQAPGKGLEWVSLISWDGGSTYYADSVKGRFTISRDNSKNSLYLQMNSLRAEDTALYYCAKDSVRFRYYYGMDVWGQGTTVTVSS
# VL: EIVLTQSPATLSLSPGERATLSCRASQSVSSYLAWYQQKPGQAPRLLIYDASNRATGIPARFSGSGSGTDFTLTISSLEPEDFAVYYCQQRSNWPLTFGPGTKVDIK
# B16: FN 2C (antibody, V domains shown)
# VH: EVQLLESGGGVVQPGRSLRLSCAASGFNFNNYGMHWVRQAPGKGLEWVATISYEGSKKFYVDSVKGRFTISKDNSKNTLYLQMNSLRVDDTAFYYCAKRREIFWLGEPPLSDAFDFWGQGTMVTVSS
# VL: QSVLTQPPSVSGAPGQRVTISCTGSGSNIGAGYDVHWYQFLPGTAPQLLIYGNNNRPSGVPDRFSGSKSGTSASLAITGLQAEDEADYYCQSYDSSLSGSVFGGGTKLTVL
# Molecular target: T1, spike glycoprotein of wild type SARS-CoV-2 virus (SARS-CoV-2, UniProt P0DTC2 14-1273)
# Experiment: cell-based or functional assay
Binder,Neutralization by PRNT EC50 [nM],Neutralization by FMNT EC50 [nM]
B1,133,–
B2,133,–
B3,8.67,0.51
B4,0.05,3.68
B5,133,–
B6,133,22.5
B7,111,–
B8,36,–
B9,75.3,–
B10,133,–
B11,133,–

# Molecular target: T2, SARS-CoV-2 nucleocapsid in fixed and permeabilised SARS-CoV-2 infected cells (SARS-CoV-2, UniProt P0DTC9 1-419)
# T2 construct: whole, on cells; also called N antigen
# Experiment: immunofluorescence assay
row,Binder,binding result
1,B12,binds
2,B13,binds
3,B14,binds

# Molecular target: T3, MERS spike extracellular domain (Middle East respiratory syndrome …, UniProt K9N5Q8 18-1296)
# T3 construct: extracellular domain
# Experiment: ELISA
row,Binder,binding result
1,B1,binds
2,B2,binds
3,B5,no binding
4,B7,binds
5,B8,binds
6,B9,binds
7,B10,no binding
8,B11,no binding
9,B15,no binding
10,B16,no binding

# Molecular target: T4, SARS spike S1 subunit (severe acute respiratory syndrome …, UniProt P59594 14-667)
# T4 construct: domain: S1 subunit
# Experiment: ELISA
row,Binder,binding result
1,B1,no binding
2,B2,no binding
3,B5,no binding
4,B7,binds
5,B8,no binding
6,B9,binds
7,B10,no binding
8,B11,no binding
9,B15,no binding
10,B16,no binding

# Molecular target: T5, SARS-CoV-2 spike S2 subunit (SARS-CoV-2, UniProt P0DTC2 686-1213)
# T5 construct: domain: S2 subunit
# Experiment: ELISA
row,Binder,binding result
1,B3,no binding
2,B4,no binding
3,B5,no binding
4,B6,no binding
5,B15,no binding

# Molecular target: T6, SARS-CoV-2 spike S1 subunit (SARS-CoV-2, UniProt P0DTC2 16-685)
# T6 construct: domain: S1 subunit
# Experiment: ELISA
row,Binder,binding result
1,B1,no binding
2,B2,no binding
3,B7,no binding
4,B8,no binding
5,B9,no binding
6,B10,no binding
7,B11,no binding
8,B16,no binding

# Molecular target: T7, Human coronavirus OC43 spike extracellular domain (human coronavirus OC43, UniProt P36334 14-1297)
# T7 construct: extracellular domain
# Experiment: ELISA
row,Binder,binding result
1,B1,binds
2,B2,binds
3,B5,no binding
4,B7,binds
5,B10,no binding
6,B11,no binding
7,B15,no binding

# Molecular target: T8, SARS-CoV-2 spike receptor binding domain (RBD) (SARS-CoV-2, UniProt P0DTC2 319-541)
# T8 construct: also called SARS-CoV-2 RBD
# Experiment: ELISA
row,Binder,binding result
1,B1,no binding
2,B2,no binding
3,B7,no binding
4,B8,no binding
5,B9,no binding
6,B10,no binding
7,B11,no binding
8,B15,no binding
9,B16,no binding

# Molecular target: T9, SARS-CoV-2 spike extracellular domain (SARS-CoV-2, UniProt P0DTC2 14-1213)
# T9 construct: extracellular domain; also called spike protein of SARS-CoV-2
# Experiment: ELISA
row,Binder,binding result
1,B15,binds

# Molecular target: T10, SARS-CoV-2 nucleocapsid protein (SARS-CoV-2, UniProt P0DTC9 1-419)
# T10 construct: also called N protein
# Experiment: ELISA on recombinant protein
row,Binder,binding result
1,B12,binds
2,B13,binds
3,B14,binds

# Molecular target: T1, spike glycoprotein of wild type …
# Experiment: cell-based or functional assay
# Remark: another data set of the same source
Binder,"Ct value of culture supernatant, after 5 days of incubation (virus control 13.0) [Ct]",fold reduction of virus [fold]
B1,22.7,~832
B3,–,~10100
B4,23,~1024
B5,18.8,~56
B6,22.7,–
